Laboratory results taken from paper PMC9060465 (2022).
Where two headings read alike, the source gives them in different places. Where no end group is shown, it is not given here. [ ]: non-standard residue; d: D form. Aib = CC(C)(N)C(=O)O

Key:
[1] = target: T1, human GIPR expressed in HEK293 cells (human, UniProt P48546 22-466); assay: [125I]GIP competition, cell membranes
T1 chain: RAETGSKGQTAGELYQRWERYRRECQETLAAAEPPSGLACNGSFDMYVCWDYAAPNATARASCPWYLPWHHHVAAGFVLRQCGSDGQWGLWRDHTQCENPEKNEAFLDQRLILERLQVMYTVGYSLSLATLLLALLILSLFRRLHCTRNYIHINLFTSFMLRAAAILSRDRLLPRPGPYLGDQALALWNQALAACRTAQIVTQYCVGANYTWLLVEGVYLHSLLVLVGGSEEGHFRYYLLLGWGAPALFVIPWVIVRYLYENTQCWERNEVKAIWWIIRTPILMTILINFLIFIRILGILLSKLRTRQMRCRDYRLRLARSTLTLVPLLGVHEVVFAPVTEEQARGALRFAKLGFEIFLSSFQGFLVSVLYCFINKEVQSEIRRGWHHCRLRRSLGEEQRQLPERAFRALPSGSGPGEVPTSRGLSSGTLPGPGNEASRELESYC

[2] = target: T2, human GLP-1R expressed in HEK293 cells (human, UniProt P43220 24-463); assay: [125I]GLP-1 competition, cell membranes
T2 chain: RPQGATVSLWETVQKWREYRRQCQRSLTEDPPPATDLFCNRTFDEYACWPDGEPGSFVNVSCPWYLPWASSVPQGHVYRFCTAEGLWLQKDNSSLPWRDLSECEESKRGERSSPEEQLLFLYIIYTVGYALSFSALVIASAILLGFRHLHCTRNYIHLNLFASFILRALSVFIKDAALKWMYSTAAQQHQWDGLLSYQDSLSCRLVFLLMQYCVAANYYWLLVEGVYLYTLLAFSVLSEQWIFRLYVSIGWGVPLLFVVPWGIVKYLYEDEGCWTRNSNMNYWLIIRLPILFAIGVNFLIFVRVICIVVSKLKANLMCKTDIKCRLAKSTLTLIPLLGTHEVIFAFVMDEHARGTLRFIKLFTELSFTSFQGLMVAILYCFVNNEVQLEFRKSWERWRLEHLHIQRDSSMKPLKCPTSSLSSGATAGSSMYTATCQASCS

[3] = target: T2, human GLP-1R expressed in HEK293 cells; assay: [125I]GLP-1 competition, cell membranes
[4] = target: T1, human GIPR expressed in HEK293 cells; assay: [125I]GIP competition, cell membranes
[5] = target: T3, isolated extracellular domain (ECD) of human GLP-1R, amino acids 24 to 145 (human, UniProt P43220 24-145); assay: SPR; kinetic fit
T3 chain: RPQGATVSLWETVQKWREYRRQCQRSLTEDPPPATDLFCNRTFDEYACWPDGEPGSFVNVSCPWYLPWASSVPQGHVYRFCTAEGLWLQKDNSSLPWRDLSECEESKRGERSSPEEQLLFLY

In the case of HAEGTFTSDYSI[Aib]LDKIAQKAFVQWLIAGGPSSGAPPPS (not fully specified (residue 2, C-terminus); ends and bridges not checked), the Ki [1] is reported as 0.416 nM and the Ki [2] is reported as 0.599 nM.

Work on YAEGTFTSDYSI[Aib]LDKIAQKAFVQWLIAGGPSSGAPPPS [tirzepatide analog lacking the lipid moiety (TZP^ΔC20)] yielded a Ki [3] of 2.67 nM, a Ki [4] of 0.0235 nM and a Kd [5] of 70.6 nM.

Work on YAEGTFTSDVSSYLEGQAAKEFIAWLVKGR (not fully specified (C-terminus)) [GLP-1H7Y] yielded a Ki [1] of over 128 nM.

YAEGTFTSDYSIALDKIAQKAFVQWLIAGGPSSGAPPPS (not fully specified) [tirzepatide (LY3298176)] showed a Ki [4] of 0.087 nM.
